Laboratory results published in patent US11332512B2, “Peptides and combination of peptides for use in immunotherapy against various tumors” (Immatics Biotechnologies GmbH, priority 2015, dated 2022).
Blank lines part the entries; values can stand above or below the substance they belong to.

How the values were obtained:
HLA-A*02:01 = HLA-A*02:01 (Homo sapiens, UniProt P04439, D140Y/D185E/D98H/E176V/E277Q/G131W/G231S/I119V/I121R/I166T/I218V/L300P/L318F/N151K/N90K/P208A/P217A/Q86G/Q94H/R138H/R169H/T345S); assay: MHC binding assay: UV-ligand exchange with beta2m ELISA (peptide exchange yield); conditions: binding to HLA-A*02:01, β2m ELISA
Source text: Candidate peptides for T cell based therapies according to the present invention were further tested for their MHC binding capacity (affinity). The individual peptide-MHC complexes were produced by UV-ligand exchange, where a UV-sensitive peptide is cleaved upon UV-irradiation, and exchanged with the peptide of interest as analyzed. Only peptide candidates that can effectively bind and stabilize the peptide-receptive MHC molecules prevent dissociation of the MHC complexes. To determine the yield of the exchange reaction, an ELISA was performed based on the detection of the light chain (β2m) of stabilized MHC complexes. The assay was performed as generally described in Rodenko et al. (Rodenko et al., 2006).
96 well MAXISorp plates (NUNC) were coated over night with 2 ug/ml streptavidin in PBS at room temperature, washed 4× and blocked for 1 h at 37° C. in 2% BSA containing blocking buffer. Refolded HLA-A*02:01/MLA-001 monomers served as standards, covering the range of 15-500 ng/ml. Peptide-MHC monomers of the UV-exchange reaction were diluted 100 fold in blocking buffer. Samples were incubated for 1 h at 37° C., washed four times, incubated with 2 ug/ml HRP conjugated anti-β2m for 1 h at 37° C., washed again and detected with TMB solution that is stopped with […]. Absorption was measured at 450 nm. Candidate peptides that show a high exchange yield (preferably higher than 50%, most preferred higher than 75%) are generally preferred for a generation and production of antibodies or fragments thereof, and/or T cell receptors or fragments thereof, as they show sufficient avidity to the MHC molecules and prevent dissociation of the MHC complexes.

CD8+ T cells = assay: In vitro immunogenicity: T-cell priming with aAPCs loaded with peptide/MHC and anti-CD28, pMHC multimer readout; assay type: cell-based, human; conditions: for Wells positive [%]: percentage of positive wells among evaluable, HLA-A*02 restricted peptides
Source text: In order to obtain information regarding the immunogenicity of the TUMAPs of the present invention, the inventors performed investigations using an in vitro T-cell priming assay based on repeated stimulations of CD8+ T cells with artificial antigen presenting cells (aAPCs) loaded with peptide/MHC complexes and anti-CD28 antibody.
In order to perform in vitro stimulations by artificial antigen presenting cells loaded with peptide-MHC complex (pMHC) and anti-CD28 antibody, the inventors first isolated CD8+ T cells from fresh HLA-A*02 leukapheresis products via positive selection using CD8 microbeads (Miltenyi Biotec, Bergisch-Gladbach, Germany) of healthy donors obtained from the University clinics Mannheim, Germany, after informed consent. PBMCs and isolated CD8+ lymphocytes were incubated in T-cell medium (TCM) until use consisting of RPMI-Glutamax (Invitrogen, Karlsruhe, Germany) supplemented with 10% heat inactivated human AB serum (PAN-Biotech, Aidenbach, Germany), 100 U/ml Penicillin/100 μg/ml Streptomycin (Cambrex, Cologne, Germany), 1 mM sodium pyruvate (CC Pro, Oberdorla, Germany), 20 μg/ml Gentamycin (Cambrex). 2.5 ng/ml IL-7 (PromoCell, Heidelberg, Germany) and 10 U/ml IL-2 (Novartis Pharma, Nürnberg, Germany) were also added to the TCM at this step. Generation of pMHC/anti-CD28 coated beads, T-cell stimulations and readout was performed in a highly defined in vitro system using four different pMHC molecules per stimulation condition and 8 different pMHC molecules per readout condition.
The purified co-stimulatory mouse IgG2a anti human CD28 Ab 9.3 (Jung et al., 1987) was chemically biotinylated using Sulfo-N-hydroxysuccinimidobiotin as recommended by the manufacturer (Perbio, Bonn, Germany). Beads used were 5.6 μm diameter streptavidin coated polystyrene particles (Bangs Laboratories, Illinois, USA).
pMHC used for positive and negative control stimulations were A*0201/MLA-001 (peptide […] (SEQ ID NO. 289) from modified Melan-A/MART-1) and A*0201/DDX5-001 ([…] from DDX5, SEQ ID NO. 290), respectively.
800.000 beads/200 μl were coated in 96-well plates in the presence of 4×12.5 ng different biotin-pMHC, washed and 600 ng biotin anti-CD28 were added subsequently in a volume of 200 μl. Stimulations were initiated in 96-well plates by co-incubating 1×10^6 CD8+ T cells with 2×10^5 washed coated beads in 200 μl TCM supplemented with 5 ng/ml IL-12 (PromoCell) for 3 days at 37° C. Half of the medium was then exchanged by fresh TCM supplemented with 80 U/ml IL-2 and incubating was continued for 4 days at 37° C. This stimulation cycle was performed for a total of three times. For the pMHC multimer readout using 8 different pMHC molecules per condition, a two-dimensional combinatorial coding approach was used as previously described (Andersen et al., 2012) with minor modifications encompassing coupling to 5 different fluorochromes. Finally, multimeric analyses were performed by staining the cells with Live/dead near IR dye (Invitrogen, Karlsruhe, Germany), CD8-FITC antibody clone SK1 (BD, Heidelberg, Germany) and fluorescent pMHC multimers. For analysis, a BD LSRII SORP cytometer equipped with appropriate lasers and filters was used. Peptide specific cells were calculated as percentage of total CD8+ cells. Evaluation of multimeric analysis was done using the FlowJo software (Tree Star, Oregon, USA). In vitro priming of specific multimer+CD8+ lymphocytes was detected by comparing to negative control stimulations.

Substance: 14 (YTFSGDVQL; listed as Homo sapiens) [compound 14]
Peptide exchange (MHC class I binding score, peptide exchange yield) (HLA-A*02:01): +++ (= ≥50% = +++)
Wells positive [%] (CD8+ T cells): + (<20% = +)

Substance: 17 (GLLPSAESIKL; listed as Homo sapiens) [compound 17]
Wells positive [%] (CD8+ T cells): + (<20% = +)

Substance: 29 (KMISAIPTL; listed as Homo sapiens) [compound 29]
Wells positive [%] (CD8+ T cells): + (<20% = +)

Substance: 35 (VIIKGLEEI; listed as Homo sapiens) [compound 35]
Wells positive [%] (CD8+ T cells): + (<20% = +)

Substance: 50 (ILLSVLHQL; listed as Homo sapiens) [compound 50]
Peptide exchange (MHC class I binding score, peptide exchange yield) (HLA-A*02:01): +++ (= ≥50% = +++)
Wells positive [%] (CD8+ T cells): + (<20% = +)

Substance: 66 (AMFPDTIPRV; listed as Homo sapiens) [compound 66]
Wells positive [%] (CD8+ T cells): + (<20% = +)

Substance: 77 (ALYGNVQQV; listed as Homo sapiens) [compound 77]
Peptide exchange (MHC class I binding score, peptide exchange yield) (HLA-A*02:01): +++ (= ≥50% = +++)
Wells positive [%] (CD8+ T cells): + (<20% = +)

Substance: 89 (SLAETIFIV; listed as Homo sapiens) [compound 89]
Peptide exchange (MHC class I binding score, peptide exchange yield) (HLA-A*02:01): +++ (= ≥50% = +++)
Wells positive [%] (CD8+ T cells): + (<20% = +)

Substance: 97 (KLFEKSTGL; listed as Homo sapiens) [compound 97]
Peptide exchange (MHC class I binding score, peptide exchange yield) (HLA-A*02:01): +++ (= ≥50% = +++)
Wells positive [%] (CD8+ T cells): + (<20% = +)

Substance: 101 (SLLEVNEASSV; listed as Homo sapiens) [compound 101]
Peptide exchange (MHC class I binding score, peptide exchange yield) (HLA-A*02:01): +++ (= ≥50% = +++)
Wells positive [%] (CD8+ T cells): + (<20% = +)

Substance: 102 (GLYPVTLVGV; listed as Homo sapiens) [compound 102]
Peptide exchange (MHC class I binding score, peptide exchange yield) (HLA-A*02:01): +++ (= ≥50% = +++)
Wells positive [%] (CD8+ T cells): + (<20% = +)

Substance: 121 (ALYVQAPTV; listed as Homo sapiens) [compound 121]
Wells positive [%] (CD8+ T cells): + (<20% = +)

Substance: 157 (ILQDGQFLV; listed as Homo sapiens) [compound 157]
Wells positive [%] (CD8+ T cells): + (<20% = +)

Substance: 236 (KMSELQTYV; listed as Homo sapiens) [compound 236]
Peptide exchange (MHC class I binding score, peptide exchange yield) (HLA-A*02:01): +++ (= ≥50% = +++)
Wells positive [%] (CD8+ T cells): + (<20% = +)

Substance: 254 (ALGDKFLLRV; listed as Homo sapiens) [compound 254]
Wells positive [%] (CD8+ T cells): + (<20% = +)

Substance: 261 (GLAALAVHL; listed as Homo sapiens) [compound 261]
Peptide exchange (MHC class I binding score, peptide exchange yield) (HLA-A*02:01): +++ (= ≥50% = +++)

Substance: 264 (TLHDQVHLL; listed as Homo sapiens) [compound 264]
Wells positive [%] (CD8+ T cells): + (<20% = +)

Substance: 270 (TLLTFFHEL; listed as Homo sapiens) [compound 270]
Peptide exchange (MHC class I binding score, peptide exchange yield) (HLA-A*02:01): +++ (= ≥50% = +++)

Substance: 271 (VLIEYNFSI; listed as Homo sapiens) [compound 271]
Peptide exchange (MHC class I binding score, peptide exchange yield) (HLA-A*02:01): +++ (= ≥50% = +++)

Substance: 276 (RMPTVLQCV; listed as Homo sapiens) [compound 276]
Peptide exchange (MHC class I binding score, peptide exchange yield) (HLA-A*02:01): +++ (= ≥50% = +++)

Substance: 277 (KLQEELNKV; listed as Homo sapiens) [compound 277]
Peptide exchange (MHC class I binding score, peptide exchange yield) (HLA-A*02:01): +++ (= ≥50% = +++)

Substance: 280 (HLWGHALFL; listed as Homo sapiens) [compound 280]
Peptide exchange (MHC class I binding score, peptide exchange yield) (HLA-A*02:01): +++ (= ≥50% = +++)

Substance: 285 (MLLDTVQKV; listed as Homo sapiens) [compound 285]
Peptide exchange (MHC class I binding score, peptide exchange yield) (HLA-A*02:01): +++ (= ≥50% = +++)

Substance: 286 (FLTEMVHFI; listed as Homo sapiens) [compound 286]
Peptide exchange (MHC class I binding score, peptide exchange yield) (HLA-A*02:01): +++ (= ≥50% = +++)

Substance: 287 (KIQEILTQV; listed as Homo sapiens) [compound 287]
wells (CD8+ T cells; percentage of positive wells, in vitro priming of CD8+ T cells of healthy HLA-A*02 donors): + (<20% = +)

Substance: 288 (SLYKGLLSV; listed as Homo sapiens) [compound 288]
donors (CD8+ T cells; percentage of positive donors, in vitro priming of CD8+ T cells of healthy HLA-A*02 donors): ++++ (> = 70% = ++++)

Second part, led by results:

Peptide exchange (MHC class I binding score, peptide exchange yield) (HLA-A*02:01): +++ (= ≥50% = +++)
Substance: 4 (VLFGELPAL; listed as Homo sapiens) [compound 4]
Wells positive [%] (CD8+ T cells): + (<20% = +)

Peptide exchange (MHC class I binding score, peptide exchange yield) (HLA-A*02:01): +++ (= ≥50% = +++)
Substance: 9 (SLITGQDLLSV; listed as Homo sapiens) [compound 9]
Wells positive [%] (CD8+ T cells): + (<20% = +)

Peptide exchange (MHC class I binding score, peptide exchange yield) (HLA-A*02:01): +++ (= ≥50% = +++)
Substance: 27 (GLLGKVTSV; listed as Homo sapiens) [compound 27]
Wells positive [%] (CD8+ T cells): + (<20% = +)

Peptide exchange (MHC class I binding score, peptide exchange yield) (HLA-A*02:01): +++ (= ≥50% = +++)
Substance: 34 (TLNTLDINL; listed as Homo sapiens) [compound 34]
Wells positive [%] (CD8+ T cells): ++++ (> = 70% = ++++)

Peptide exchange (MHC class I binding score, peptide exchange yield) (HLA-A*02:01): +++ (= ≥50% = +++)
Substance: 39 (YLEDGFAYV; listed as Homo sapiens) [compound 39]
Wells positive [%] (CD8+ T cells): ++++ (> = 70% = ++++)

Peptide exchange (MHC class I binding score, peptide exchange yield) (HLA-A*02:01): +++ (= ≥50% = +++)
Substance: 233 (SLFESLEYL; listed as Homo sapiens) [compound 233]
Wells positive [%] (CD8+ T cells): + (<20% = +)

Peptide exchange (MHC class I binding score, peptide exchange yield) (HLA-A*02:01): +++ (= ≥50% = +++)
Substance: 242 (KLQEEIPVL; listed as Homo sapiens) [compound 242]
Wells positive [%] (CD8+ T cells): + (<20% = +)

Peptide exchange (MHC class I binding score, peptide exchange yield) (HLA-A*02:01): +++ (= ≥50% = +++)
Substance: 246 (ALAGIVTNV; listed as Homo sapiens) [compound 246]
Wells positive [%] (CD8+ T cells): + (<20% = +)

Peptide exchange (MHC class I binding score, peptide exchange yield) (HLA-A*02:01): +++ (= ≥50% = +++)
Substance: 253 (KLLAVIHEL; listed as Homo sapiens) [compound 253]

Peptide exchange (MHC class I binding score, peptide exchange yield) (HLA-A*02:01): +++ (= ≥50% = +++)
Substance: 256 (FLNDIFERI; listed as Homo sapiens) [compound 256]

Peptide exchange (MHC class I binding score, peptide exchange yield) (HLA-A*02:01): +++ (= ≥50% = +++)
Substance: 262 (LLLEAVWHL; listed as Homo sapiens) [compound 262]

Peptide exchange (MHC class I binding score, peptide exchange yield) (HLA-A*02:01): +++ (= ≥50% = +++)
Substance: 265 (FLLDKPQDLSI; listed as Homo sapiens) [compound 265]

Peptide exchange (MHC class I binding score, peptide exchange yield) (HLA-A*02:01): +++ (= ≥50% = +++)
Substance: 274 (TLYNPERTITV; listed as Homo sapiens) [compound 274]

Peptide exchange (MHC class I binding score, peptide exchange yield) (HLA-A*02:01): +++ (= ≥50% = +++)
Substance: 278 (VLEDKVLSV; listed as Homo sapiens) [compound 278]

Peptide exchange (MHC class I binding score, peptide exchange yield) (HLA-A*02:01): +++ (= ≥50% = +++)
Substance: 283 (ALSELLQQV; listed as Homo sapiens) [compound 283]
